Article PMC12022045 (Nature Communications, 2025)
Blank lines part the entries; values can stand above or below the binder they belong to.

What was measured:
TAFH = molecular target: T1, TAFH (human, UniProt O00268 582-678); assay: NMR titration
T1 sequence (looked up): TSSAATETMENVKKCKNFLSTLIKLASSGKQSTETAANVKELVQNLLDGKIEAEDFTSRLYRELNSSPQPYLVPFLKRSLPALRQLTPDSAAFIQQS

MED15-ABD3 [1] = molecular target: T2, MED15-ABD3 (human, UniProt Q96RN5-2 453-561); assay: NMR titration
T2 sequence (looked up): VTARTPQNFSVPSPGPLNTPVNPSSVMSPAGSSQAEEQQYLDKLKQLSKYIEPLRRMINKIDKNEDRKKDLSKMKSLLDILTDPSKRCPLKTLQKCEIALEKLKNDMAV

MED15-ABD3 [2] = molecular target: T2, MED15-ABD3; assay: SPR

binding result (TAFH): binds
binding result (MED15-ABD3 [1]): binds
Binder: FLTWL [FLTWL pentapeptide]

Kd (MED15-ABD3 [2]): 160 ± 54.3 nM
B1: YAP-TAD (domain or fragment, human, UniProt P46937 450-504, looked up)
chain: GTNVDLGTLEGDGMNIEGEELMPSLQEALSSDILNDMESVLAATKLDKESFLTWL

binding result (TAFH): binds
Binder: SDILNDMESVLAATK [α-helix-based peptide SDILNDMESVLAATK]
